Consider three substances from patent US20050221459.

The test system of data set [1] is Ras-CVLL (SEQ ID NO: 4).
The subject of data set [2] is Ras-CVLS (SEQ ID NO: 3).

“Wild-type GGTase-I used in the prenylation assay of Example 3” yielded a Turnover numbers under the optimal substrate concentrations in data set [1] of 0.65 min⁻¹. For the substance “W102T mutant of human FTase (W102β converted to threonine)”, in data set [2], the Turnover numbers under the optimal substrate concentrations came to 0.59 min⁻¹ and the “substrate specificity characterized by enzymatic assays” value is reported as “creating an FTase enzyme greatly preferring GGPP over FPP as its isoprenoid substrate without significantly altering Ca1a2X sequence specificity”. In data set [2], “Human protein farnesyltransferase (hFTase)” had a Turnover numbers under the optimal substrate concentrations of 1 min⁻¹.
